Laboratory results from IntAct's records for PubMed 20176808.

B1: Inactive serine/threonine-protein kinase TEX14 (Mus musculus), Q7M6U3 (parent)
chain: MSRGAPFPVPCPVLLGTFTDDSLEAQLHEYAKQGNCVKLKKILKKGVCVDAVNTQGQSALFVAALLGHVKLVDVLVDYGSDPNHRCFDGSTPVHAAAFSGNQWILSKLLTAGGDLRLHDEKGRNPQAWALTAGKDRSTQMVEFMQRCTSHMKAIIQGFSYDLLKKIDSPQRLIGSPPWFGSLIQGSPNSSPNRQLKPGIISAQNIYSFGFGKFYLTSGMQLTYPGSLPVIGEKEVVQADDEPTFSFFSGPYMVMTNLVWNRSRVTVKELNLPTRPHCSRLRLADLLIAEQEHSSNLRHPNLLQLMAVCLSRDLEKIRLVYERITVGTLFSVLHERRSQFPVLHMEVIVHLLLQVADALIYLHSRGFIHRSLSSYAVHIVSAGEARLTNLEYLTESQDSGAHRNVTRMPLPTQLYNWAAPEVVLQKAATVKSDIYSFSVIIQEILTDSIPWNGLDGSLVKETIALGNYLEADVRLPEPYYDIVKSGIHAKQKNRTMNLQDIRYILKNDLKEFIGAQKTQPTESPRGQSYEPHPDVNICLGLTSEYQKDPPDLDIKELKEMGSQPHSPTDHSFLTVKPTLAPQTLDSSLSAQKPDNANVPSPPAACLAEEVRSPTASQDSLCSFEINEIYSGCLTLGTDKEEECLGTAASPEGDRPNQGDELPSLEEELDKMERELHCFCEEDKSISEVDTDLLFEDDDWQSDSLGSLNLPEPTREAKGKTSSWSKTDEYVSKCVLNLKISQVMMQQSAEWLRKLEQEVEELEWAQKELDSQCSSLRDASLKFANAKFQPAVGPPSLAYLPPVMQLPGLKQPENGGTWLTLARSPGNEREFQEGHFSKKPEKLSACGWKPFTQVSEESRGDCSELNNQLPTLRGPGKQSTGEQLPSTQEARESLEKNTNQNSRSMASVSSEIYATKSRNNEDNGEAHLKWRLAVKEMAEKAVSGQLLLPPWNPQSSAPFESKVENESTPLPRPPIRGPESTEWQHILEYQRENDEPKGNTKFGKMDNSDCDKNKHSRWTGLQRFTGIRYPFFRNHEQPEQNEASQASCDTSVGTEKFYSTSSPIGDDFERFQDSFAQRQGYVEENFQIREIFEKNAEILTKPQFQAIQCAEDKQDETLGETPKELKEKNTSLTDIQDLSSITYDQDGYFKETSYKTPKLKHAPTSASTPLSPESISSAASHYEDCLENTTFHVKRGSTFCWNGQEAMRTLSAKFTTVRERAKSLESLLASSKSLPAKLTDSKRLCMLSETGSSNVSAAFVTSTHATKRKSLPRELAEATSQQHLDELPPPAQELLDEIEQLKQQQVSSLASHENTARDLSVTNKDKKHLEEQETNSSKDSSFLSSREIQDLEDTERAHSSLDEDLERFLQSPEENTALLDPTKGSTREKKNKDQDVVEQKRKKKESIKPERRESDSSLGTLEEDELKPCFWKRLGWSEPSRIIVLDQSDLSD
partner: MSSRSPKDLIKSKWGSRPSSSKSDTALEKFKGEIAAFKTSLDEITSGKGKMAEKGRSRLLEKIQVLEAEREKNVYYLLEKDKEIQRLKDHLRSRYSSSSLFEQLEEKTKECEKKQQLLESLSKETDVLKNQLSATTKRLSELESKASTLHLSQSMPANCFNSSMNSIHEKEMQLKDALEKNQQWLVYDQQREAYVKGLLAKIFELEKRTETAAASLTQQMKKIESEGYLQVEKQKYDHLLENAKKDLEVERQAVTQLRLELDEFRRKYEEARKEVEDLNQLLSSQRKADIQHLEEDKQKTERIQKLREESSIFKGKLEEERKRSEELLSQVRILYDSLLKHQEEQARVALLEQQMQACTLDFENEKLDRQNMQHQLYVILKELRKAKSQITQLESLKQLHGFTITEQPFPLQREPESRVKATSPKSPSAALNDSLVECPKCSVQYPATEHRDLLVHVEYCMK

Variants of: B1
Details: with cep55_mouse Cep55, Q8BT07

Row | effect of a mutation on the interaction | Variant
1 | disrupting interaction | Y797A
2 | decreasing interaction | P793A
3 | disrupting interaction | P792A
